Data from patent US20060148057.

Legend:
[1] = target: endogenous ASK1 of bovine aorta endothelial cells (BAEC), A0AAA9
[2] = target: GST-SOCS3 (full-length) [GST: P08515]
[3] = target: GST-SOCS3-DC (1-138aa, deletion of the C-terminal SOCS box) [GST: P08515]
[4] = target: GST-SOCS3-N (1-45aa) [GST: P08515]

B1: Flag-tagged Trx-WT (protein)
chain: MVKQIESKTAFQEALDAAGDKLVVVDFSATWCGPCKMIKPFFHSLSEKYSNVIFLEVDVDDCQDVASECEVKCMPTFQFFKKGQKVGEFSGANKEKLEATINELV
B1 was tested, and the “ASK1 ubiquitination and degradation (Western blot; IP anti-ASK1, blot anti-Ub)” value [1] was “Trx expression significantly increased ASK1 ubiquitination” and the “ASK1 ubiquitination and degradation (Western blot with anti-Flag)” value (Flag-ASK1-ΔN, Q99683) was “expression of Trx did not induce ubiquitination and degradation of ASK1 -ΔN, a mutant ASK1 lacking the N-terminal Trx-binding domain”.

B2: HA-tagged ASK1-WT (protein)
chain: MSTEADEGITFSVPPFAPSGFCTIPEGGICRRGGAAAVGEGEEHQLPPPPPGSFWNVESAAAPGIGCPAATSSSSATRGRGSSVGGGSRRTTVAYVINEASQGQLVVAESEALQSLREACETVGATLETLHFGKLDFGETTVLDRFYNADIAVVEMSDAFRQPSLFYHLGVRESFSMANNIILYCDTNSDSLQSLKEIICQKNTMCTGNYTFVPYMITPHNKVYCCDSSFMKGLTELMQPNFELLLGPICLPLVDRFIQLLKVAQASSSQYFRESILNDIRKARNLYTGKELAAELARIRQRVDNIEVLTADIVINLLLSYRDIQDYDSIVKLVETLEKLPTFDLASHHHVKFHYAFALNRRNLPGDRAKALDIMIPMVQSEGQVASDMYCLVGRIYKDMFLDSNFTDTESRDHGASWFKKAFESEPTLQSGINYAVLLLAAGHQFESSFELRKVGVKLSSLLGKKGNLEKLQSYWEVGFFLGASVLANDHMRVIQASEKLFKLKTPAWYLKSIVETILIYKHFVKLTTEQPVAKQELVDFWMDFLVEATKTDVTVVRFPVLILEPTKIYQPSYLSINNEVEEKTISIWHVLPDDKKGIHEWNFSASSVRGVSISKFEERCCFLYVLHNSDDFQIYFCTELHCKKFFEMVNTITEEKGRSTEEGDCESDLLEYDYEYDENGDRVVLGKGTYGIVYAGRDLSNQVRIAIKEIPERDSRYSQPLHEEIALHKHLKHKNIVQYLGSFSENGFIKIFMEQVPGGSLSALLRSKWGPLKDNEQTIGFYTKQILEGLKYLHDNQIVHRDIKGDNVLINTYSGVLKISDFGTSKRLAGINPCTETFTGTLQYMAPEIIDKGPRGYGKAADIWSLGCTIIEMATGKPPFYELGEPQAAMFKVGMFKVHPEIPESMSAEAKAFILKCFEPDPDKRACANDLLVDEFLKVSSKKKKTQPKLSALSAGSNEYLRSISLPVPVLVEDTSSSSEYGSVSPDTELKVDPFSFKTRAKSCGERDVKGIRTLFLGIPDENFEDHSAPPSPEEKDSGFFMLRKDSERRATLHRILTEDQDKIVRNLMESLAQGAEEPKLKWEHITTLIASLREFVRSTDRKIIATTLSKLKLELDFDSHGISQVQVVLFGFQDAVNKVLRNHNIKPHWMFALDSIIRKAVQTAITILVPELRPHFSLASESDTADQEDLDVEDDHEEQPSNQTVRRPQAVIEDAVATSGVSTLSSTVSHDSQSAHRSLNVQLGRMKIETNRLLEELVRKEKELQALLHRAIEEKDQEIKHLKLKSQPIEIPELPVFHLNSSGTNTEDSELTDWLRVNGADEDTISRFLAEDYTLLDVLYYVTRDDLKCLRLRGGMLCTLWKAIIDFRNKQT
With B2 the “phosphorylation in an in vitro kinase assay” value (“phosphorylation” below) [2] was “only the full-length GST-SOCS3 was phosphorylated by ASK1”, the “phosphorylation” value [3] was “only the full-length GST-SOCS3 was phosphorylated by ASK1” and the “phosphorylation” value [4] was “only the full-length GST-SOCS3 was phosphorylated by ASK1”.
